What was measured:
[1] = target: CMP-Ang1 fusion protein (encoded by mRNA-59) (human); test: non-reducing PAGE with immunoblot; concentrated serum-free supernatant of mRNA-transfected HeLa cells, non-reducing PAGE, Western blot with Ang1-specific antibody
[2] = target: COMP-Ang1 fusion protein (encoded by mRNA-76), secreted by HeLa cells (not stated ('humanized' fusion protein) | human); test: as above

Substance “CMP-Ang1 fusion protein (encoded by mRNA-59) (ligand)” has a stoichiometry N [1] of 2.
Substance “COMP-Ang1 fusion protein (encoded by mRNA-76), secreted by HeLa cells (ligand)” has a stoichiometry N [2] of 5.

From article PMC10682670
